Our source for the geometric mean (FACS), % of CD138 positive cells immunoreactive and % of cells immunoreactive values is US20200062842A1.

For assay [1], the target named is human MUC1 on the surface of MUC1 expressing tumor cells (human) (UniProt P15941). The assay can be described thus: flow cytometry, FITC-conjugated antibody, OVCAR-3 cells; cell looks truncated. For orientation: A flow cytometer gives signals particle by particle.
Assay [2] has the same target. The assay can be described thus: flow cytometry, FITC-conjugated antibody, MDA-231 cells; cell looks truncated.
Assay [3] shares this target. The assay can be described thus: FACS, bone marrow aspirate of MM patient P #II.
Assay [4] has the same target. Nature of the assay: flow cytometry, FITC-conjugated antibody, Raji cells; cell looks truncated.
Assay [5] shares this target. Nature of the assay: FACS, bone marrow aspirate of MM patient P #I.
For assay [6] the target is unchanged. The assay can be described thus: flow cytometry, FITC-conjugated antibody, ARH-77 cells; cell looks truncated.
For assay [7] the target is unchanged. Nature of the assay: flow cytometry, FITC-conjugated antibody, MCF7 cells; cell looks truncated.
The target is the same in assay [8]. The assay can be described thus: flow cytometry, FITC-conjugated antibody, RPMI8226 cells; cell looks truncated.
For assay [9] the target is unchanged. The assay can be described thus: FACS, bone marrow aspirate of MM patient P #3.
The target is the same in assay [10]. Nature of the assay: flow cytometry, FITC-conjugated antibody, U266 cells; cell looks truncated.
For assay [11] the target is unchanged. The assay can be described thus: flow cytometry, FITC-conjugated antibody, MDA-453 cells; cell looks truncated.
For assay [12] the target is unchanged. Nature of the assay: flow cytometry, FITC-conjugated antibody, MDA-231 cells; negative control.
Assay [13] shares this target. Nature of the assay: flow cytometry, FITC-conjugated antibody, OVCAR-3 cells; negative control.
For assay [14] the target is unchanged. Nature of the assay: flow cytometry, FITC-conjugated antibody, U266 cells; negative control.
The target is the same in assay [15]. The assay can be described thus: flow cytometry, FITC-conjugated antibody, MDA-453 cells; negative control.
Assay [16] has the same target. The assay can be described thus: flow cytometry, FITC-conjugated antibody, Raji cells; negative control.
For assay [17] the target is unchanged. Nature of the assay: flow cytometry, FITC-conjugated antibody, Ramos cells; negative control.
Assay [18] has the same target. The assay can be described thus: flow cytometry, FITC-conjugated antibody, ARH-77 cells; negative control.
For assay [19] the target is unchanged. The assay can be described thus: flow cytometry, FITC-conjugated antibody, RPMI8226 cells; negative control.
For assay [20] the target is unchanged. The assay can be described thus: flow cytometry, FITC-conjugated antibody, MCF7 cells; negative control.

UniProt P15941, sequence (P15941 24-1255): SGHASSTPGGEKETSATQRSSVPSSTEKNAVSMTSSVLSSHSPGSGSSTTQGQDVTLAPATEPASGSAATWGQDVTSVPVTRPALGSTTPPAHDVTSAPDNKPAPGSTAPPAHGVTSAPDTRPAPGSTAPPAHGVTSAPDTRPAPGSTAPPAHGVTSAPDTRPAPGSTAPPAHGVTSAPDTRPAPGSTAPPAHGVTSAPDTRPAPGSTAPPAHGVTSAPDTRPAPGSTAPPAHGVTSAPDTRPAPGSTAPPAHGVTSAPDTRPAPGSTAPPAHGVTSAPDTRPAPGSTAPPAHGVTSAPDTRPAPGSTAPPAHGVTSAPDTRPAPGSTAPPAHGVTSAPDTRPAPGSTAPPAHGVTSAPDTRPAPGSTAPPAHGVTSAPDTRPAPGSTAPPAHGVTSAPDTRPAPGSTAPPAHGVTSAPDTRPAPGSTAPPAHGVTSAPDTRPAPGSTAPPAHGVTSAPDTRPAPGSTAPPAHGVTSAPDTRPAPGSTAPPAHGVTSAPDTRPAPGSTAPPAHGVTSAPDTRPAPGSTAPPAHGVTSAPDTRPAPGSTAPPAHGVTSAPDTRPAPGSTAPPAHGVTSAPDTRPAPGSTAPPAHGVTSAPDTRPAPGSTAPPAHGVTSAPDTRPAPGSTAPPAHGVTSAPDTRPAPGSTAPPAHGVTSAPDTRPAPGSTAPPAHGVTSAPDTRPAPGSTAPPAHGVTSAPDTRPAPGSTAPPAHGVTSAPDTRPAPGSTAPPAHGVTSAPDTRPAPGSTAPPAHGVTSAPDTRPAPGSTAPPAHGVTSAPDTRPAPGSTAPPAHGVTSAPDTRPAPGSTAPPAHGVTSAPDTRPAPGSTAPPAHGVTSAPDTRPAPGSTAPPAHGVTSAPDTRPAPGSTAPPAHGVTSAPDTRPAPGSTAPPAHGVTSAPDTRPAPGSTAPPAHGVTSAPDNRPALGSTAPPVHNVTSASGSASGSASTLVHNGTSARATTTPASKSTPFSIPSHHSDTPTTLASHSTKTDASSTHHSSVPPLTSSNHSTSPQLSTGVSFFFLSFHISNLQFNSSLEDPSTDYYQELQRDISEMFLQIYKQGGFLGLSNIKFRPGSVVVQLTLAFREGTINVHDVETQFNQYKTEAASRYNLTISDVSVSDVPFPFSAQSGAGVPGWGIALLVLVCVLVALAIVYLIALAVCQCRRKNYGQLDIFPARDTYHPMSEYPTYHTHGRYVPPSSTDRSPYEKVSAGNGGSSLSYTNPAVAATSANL

Turning to H23 anti-MUC1 TRA monoclonal antibody, the geometric mean (FACS) came out at 456 in assay [1]; 66 in assay [2]; 3 in assay [4]; 68 in assay [6]; 4 in assay [7]; 585 in assay [8]. Besides, the geometric mean (FACS) in assay [10] turned out to be 39; in [11] it was 80. Besides, the % of CD138 positive cells immunoreactive in assay [3] is 59.2%; in [5], 78.3%. This substance also came in with a % of cells immunoreactive in assay [9] of 0.37%.

Take “Mouse control (species-specific isotype control, FITC conjugated) (antibody)”: the geometric mean (FACS) in [12] was 245; in assay [13] it was 370; in [14], 485; in assay [15] it was 182; in assay [16], 131; in assay [17] it was 198. Moreover, the geometric mean (FACS) in assay [18] came out at 176; in [19], 745; in assay [20], 230.

As for “Rabbit control (species-specific isotype control, FITC conjugated) (antibody)”, the geometric mean (FACS) in [12] stood at 215; in [13], 418; in assay [14] it was 471; in [15], 165; in [16], 128; in [17], 111. For the same substance, the results for the geometric mean (FACS) in assay [18], in assay [19] and in assay [20] were 161, 738 and 236, respectively.
